Measurements as given in patent US20100166734A1 (published 2010).
Residue numbers refer to the chain shown, from its start.

B1: 1E7 (VHH)
VHH: EVQLVESGGGLVQAGGSLRLSCAASGRTFSNYVMGWFRQAPGKEREFVAAISWSGVTTYHYSADSVKGRFTTSRDNDRNTAHLQMNSLKPEDTAVYYCAARGRTGSDPRKGDDYDYWGQGTQVTVSS
notes: Carries a myc tag (detected with anti-myc)
B2: 4B11 (VHH)
VHH: EVQLVESGGGLVQPGGSLRLSCAASGFTLDYYAIGWFRQAPGKEREGVSCISSSDMSDGITYYADSVKGRFTSSRDNVKNTVYLQMNSLKPEDTAVYYCATTFGDACTVVAGIPDQADFDSWGQGTQVTVSS
notes: Carries myc and His tags
B3: 1D2 (VHH)
VHH: EVQLVESGGGLVQPGGSLRLSCAASGFTLDYYAIGWFRRAPGKEREGVSCTSSSDGSTYYADSVKGRFTISRDNAKNTVYLQMNSLKPEDTAVYYCATTFGDACTVVAGIPDQYDFGSWGQGTQVTVSS
notes: Carries myc and His tags
B4: 4D9 (VHH)
VHH: B3 VHH with A33D, R39Q
B5: 4B7 (VHH)
VHH: EVQLVESGGGLVQAGGSLRLSCAASGFTFDDYAIGWFRQAPGKEREGVSCISSRDGITYYADSVKGRFTISSDNAKNTVYLQMNSLKPEDTAVYYCAADLVGSFPCPVAAYDYWGQGTQVTVSS
notes: Carries myc and His tags
B6: 1D7 (VHH)
VHH: EVQLVESGGGLVQSGGSLRLSCAASGRAFNYYAMGWFRQAPGKERELVAVINWSGGTTSYADSVKGRFTISRSNAKNTVYLQMSSLKPEDTAVYYCAADSIYRTSKDYNYWGQGTQVTVSS
notes: Carries myc and His tags (detected with anti-myc, pulled down on talon beads)
B7: 4C4 (VHH)
VHH: EVQLVESGGGLVQAGDSLRLSCAASGRPFMSYVMGWFRRAPGKEREFVGGINWGSGNTWYTDSVLGRFTISRDNAKNTVYLQMNSLKPEDTAVYYCATAAGVGYYRYERQYDYWGQGTQVTVSS
notes: Tested as periplasmic extract
B8: 4C5 (VHH)
VHH: B7 VHH with M30S, S31A, G54N, G56A, R72K, T98A, A100G
notes: Tested as periplasmic extract
B9: 4D7 (VHH)
VHH: B7 VHH with M30S, G54N, T61S, Y80D, A100S
notes: Tested as periplasmic extract
B10: 4D10 (VHH)
VHH: EVQLVESGGGLVQAGDSLRLSCTASERPFMSYVMGWFRRAPGKDREFVGAITWSGINTWYSDSVLGRFTISRDNAKNTVYLQMNSLKPEDTAVYYCAVADGVGLYRYERQYDYWGQGTQVTVSS
notes: Tested as periplasmic extract
B11: 4A6 (VHH)
VHH: EVQLVESGGGLVQPGGSLRLSCAASPFTLDYYAIGWFRQAPGKEREGVSCSTSHGKTYHADSVKGRFTISRDNAKNTVYLQMNSLKPEDTAVYYCAAGACMGGSGYEADFGSWGQGTQVTVSS
notes: Tested as periplasmic extract
B12: 4B1 (VHH)
VHH: B11 VHH with A23V, S25A, P26G, S51I, H54D, K56R, H59Y, N73M, N76K, T77M
notes: Tested as periplasmic extract
B13: 4C9 (VHH)
VHH: EVQLVESGGGLVQAGDSLRLSCTASERPFSTYVMGWFRRAPGKEREFVGGITWSGINAWYTDSVLGRFTISSDNAKNTVYLQMNSLKPEDTAVYYCAAASGVGRYRYELQYDYWGQGTQVTVSS
notes: Tested as periplasmic extract
B14: 4A2 (VHH)
VHH: EVQLVESGGGLVQAGGSLRLSCAASGLSFSSYAMGWFRQAPGKEREFVAAIRRREGNSYYADSVKGRFTISRDSAKNTVYLQMNSLKPEDTALYSCAATAPHYSGSFAYAGGYDYWGQGTQVTVSS
notes: Tested as periplasmic extract
B15: 4C8 (VHH)
VHH: EVQLVESGGGLVQAGDSLRLSCAASGRTYTPYVMGWFRRAPGKEREFVGAVSWSGTNTWYTDSVKGRFTISRDNAKNTVYLQMNSLKPEDTAVYYCAAGDGVGIYRYEHQYDYWGQGTQVTVSS
notes: Tested as periplasmic extract
B16: 4C3 (VHH)
VHH: EVQLVESGGGLVQAGGSLRLSCAASGRTFSSYAMAWFRQAPGEEREFVATISVSGGYTYYADSVKGRFTISRDNAKNTVYLQMNTLKPEDTAVYYCAAGDSSSWLEHMYDYWGQGTQVTVSS
notes: Tested as periplasmic extract
B17: 4B8 (VHH)
VHH: EVQLVESGGGLVQAGGSLRLSCAASGGTYSGNAMAWFRQAPGKEREFVAGIDWSSENTRYIDSVKGRFTISRDNAKNTMYLQMNSLKPEDTAVYYCAAGTSWGALASRLEAAYSSWGQGTQVTVSS
notes: Tested as periplasmic extract
B18: 4B5 (VHH)
VHH: B17 VHH with G16D, G27R, G31R, N77S
notes: Tested as periplasmic extract
B19: 4B6 (VHH)
VHH: B17 VHH with E1K, A14V, A23V, G27R, S30G, I61T, A111N, S115A
notes: Tested as periplasmic extract
B20: 4D4 (VHH)
VHH: EVQLVESGGGLVQAGDSLRLSCAASGRTFSPYVMGWFRRAPGKEREFVGGINWSGSNTWYTDSVKGRFTISRDNVKNMVYLQMNSLKPEDTAVYYCAAGSGVGMYRYERQYDYWGQGTQVTVSS
notes: Tested as periplasmic extract
B21: 4D3 (VHH)
VHH: EVQLVKSGGGLVQPGGSLRLSCAASGFTFSHYQMSWVRQAPGKDVEWVSSISMLGGGTTYADSVKGRFTISRDNAKSTLVLQMNNLKVEDTAVYYCARGFSGNYYRADLGQGTQVTVSS
notes: Tested as periplasmic extract
B22: 4D5 (VHH)
VHH: EVQLVESGGGLVQAGGSLRLSCAASGLSFSKYAMGWFRQAPGKQREYVAVISSSDTTYYTNSAKGRFTISRDNAENTVYLQMNSLKPEDTAVYFCAADSYVTALQTLTQISYWGQGTQVTVSS
notes: Tested as periplasmic extract
B23: 4C11 (albumin binder) (VHH)
VHH: B22 VHH with K31R, Y100F, S111N
notes: Tested as periplasmic extract
B24: 4B10 (VHH)
VHH: EVQLVESGGGLVQAGDSLRLSCAASGRTFSSYAMGWFRQAPGTERQFVARITGKGDSTDYADSVRGRFTISRDNAKNTVYLQMNSLKPEDTAVYYCAADAFNSLLQAGRAEYWGQGTQVTVSS
notes: Tested as periplasmic extract
B25: 4A9 (VHH)
VHH: EVQLVESGGGLVQAGGSLRLSCEASGFTLDYSGVGWFRQAPGKERELVSCISRGGDRAGYANSVKGRFTMSRDNAKNILYLQMNSLKPEDTAVYYCAATHSGSGCYDGAIDYWGKGTLVTVSS
notes: Tested as periplasmic extract

How the values were obtained:
[1] = biological target: T1, human pIgR overexpressed in MDCK cells (human, UniProt P01833 19-764); assay: immunofluorescence on MDCK cells overexpressing human pIgR, 3 uM purified Nanobody at 4C, anti-myc detection
T1 construct: whole, on cells; also called hpIgR; human polymeric immunoglobulin receptor
T1 sequence (P01833 19-764): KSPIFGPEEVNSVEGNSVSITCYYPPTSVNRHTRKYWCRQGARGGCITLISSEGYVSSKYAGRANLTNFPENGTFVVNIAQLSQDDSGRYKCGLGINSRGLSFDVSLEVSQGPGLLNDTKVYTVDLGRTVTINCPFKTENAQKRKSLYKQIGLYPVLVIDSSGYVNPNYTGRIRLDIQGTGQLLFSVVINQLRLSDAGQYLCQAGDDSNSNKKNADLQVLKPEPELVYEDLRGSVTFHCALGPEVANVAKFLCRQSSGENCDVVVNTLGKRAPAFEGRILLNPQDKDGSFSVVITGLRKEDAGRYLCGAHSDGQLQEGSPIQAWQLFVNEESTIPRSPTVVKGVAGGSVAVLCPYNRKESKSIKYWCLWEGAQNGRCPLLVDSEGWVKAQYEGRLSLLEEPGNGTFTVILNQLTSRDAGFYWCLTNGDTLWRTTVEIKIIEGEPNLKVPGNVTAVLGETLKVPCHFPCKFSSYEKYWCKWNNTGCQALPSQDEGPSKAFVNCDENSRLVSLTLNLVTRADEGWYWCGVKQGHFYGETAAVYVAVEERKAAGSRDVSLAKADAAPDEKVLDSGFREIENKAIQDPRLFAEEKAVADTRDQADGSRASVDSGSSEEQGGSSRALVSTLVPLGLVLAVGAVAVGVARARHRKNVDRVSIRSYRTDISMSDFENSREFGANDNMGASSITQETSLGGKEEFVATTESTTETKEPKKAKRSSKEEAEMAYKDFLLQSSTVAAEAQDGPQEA

[2] = biological target: T2, ectodomain of human pIgR (R&D Systems Cat #2717-PG) (human, UniProt P01833 19-638); assay: competition ELISA, dilution series of purified Nanobody against 1 ug/ml IgA on immobilised pIgR ectodomain
T2 construct: extracellular domain; Immobilised on Maxisorp plates at 5 ug/ml; also called pIgR ectodomain
T2 sequence (P01833 19-638): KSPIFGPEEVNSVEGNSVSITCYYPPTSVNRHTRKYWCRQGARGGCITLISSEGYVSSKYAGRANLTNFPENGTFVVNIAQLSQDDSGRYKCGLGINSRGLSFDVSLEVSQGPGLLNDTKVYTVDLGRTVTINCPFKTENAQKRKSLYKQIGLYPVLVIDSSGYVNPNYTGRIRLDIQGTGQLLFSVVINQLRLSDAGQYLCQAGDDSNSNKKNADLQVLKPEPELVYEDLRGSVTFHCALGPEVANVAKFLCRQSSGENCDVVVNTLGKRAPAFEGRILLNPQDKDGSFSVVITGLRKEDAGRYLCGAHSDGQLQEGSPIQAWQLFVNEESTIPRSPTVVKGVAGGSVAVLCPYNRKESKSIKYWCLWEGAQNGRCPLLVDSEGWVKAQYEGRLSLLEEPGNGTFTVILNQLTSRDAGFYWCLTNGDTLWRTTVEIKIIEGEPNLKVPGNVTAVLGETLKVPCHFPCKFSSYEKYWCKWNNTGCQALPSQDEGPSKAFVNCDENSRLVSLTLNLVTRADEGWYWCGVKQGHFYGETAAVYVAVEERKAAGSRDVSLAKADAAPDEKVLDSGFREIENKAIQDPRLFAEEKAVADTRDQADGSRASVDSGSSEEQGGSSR

[3] = biological target: T1, human pIgR overexpressed in MDCK cells; assay: immunoprecipitation from cell lysates with His-tagged nanobodies on talon beads, blot with a-hSC
[4] = biological target: T3, human serum albumin (human, UniProt P02768 25-609); assay: SPR (Biacore), HSA amine-coupled on CM5, pH 5
T3 construct: also called HSA

[5] = biological target: T3, human serum albumin; assay: SPR (Biacore), HSA amine-coupled on CM5, pH 7
[6] = biological target: T3, human serum albumin; assay: SPR (Biacore), ratio of the off rates at the two pH

| Binder | binding result [1] | binding result [2] | binding result [3] | koff [4] [s⁻¹] | koff [5] [s⁻¹] | Ratio pH 7/pH 5 [6] |
| --- | --- | --- | --- | --- | --- | --- |
| B1 | binds | binds |  |  |  |  |
| B2 | binds | binds |  |  |  |  |
| B3 | binds | binds |  |  |  |  |
| B4 |  | binds |  |  |  |  |
| B5 |  |  | binds |  |  |  |
| B6 |  | binds | binds |  |  |  |
| B7 |  |  |  | 0.00121 | 0.000499 | 2.42 |
| B8 |  |  |  | 0.00132 | 0.000541 | 2.44 |
| B9 |  |  |  | 0.00158 | 0.000653 | 2.42 |
| B10 |  |  |  | 0.00341 | 0.000523 | 6.52 |
| B11 |  |  |  | 0.00999 | 0.00173 | 5.77 |
| B12 |  |  |  | 0.00773 | 0.00875 | 0.88 |
| B13 |  |  |  | 0.00171 | 0.000441 | 3.88 |
| B14 |  |  |  | 0.0227 | 0.00642 | 3.54 |
| B15 |  |  |  | 0.00209 | 0.000624 | 3.35 |
| B16 |  |  |  | 0.00375 | 0.00112 | 3.35 |
| B17 |  |  |  | 0.0018 | 0.000741 | 2.43 |
| B18 |  |  |  | 0.00403 | 0.00174 | 2.32 |
| B19 |  |  |  | 0.00119 | 0.000368 | 3.23 |
| B20 |  |  |  | 0.0166 | 0.00602 | 2.76 |
| B21 |  |  |  | 0.0137 | 0.00565 | 2.42 |
| B22 |  |  |  | 0.0263 | 0.0204 | 1.29 |
| B23 |  |  |  | 0.0312 | 0.0263 | 1.19 |
| B24 |  |  |  | 0.0434 | 0.0499 | 0.87 |
| B25 |  |  |  | 0.00701 | 0.013 | 0.54 |
